Laboratory results reported in paper PMC2119095.

Biological target: Ld class I MHC molecule of the mouse, properly folded form detected by mAb 30-5-7 (mouse)
Experiment: radioligand binding + co-IP

Chain of Ld class I MHC molecule of the mouse, properly folded form detected by mAb 30-5-7 (mouse) (P01897 25-362): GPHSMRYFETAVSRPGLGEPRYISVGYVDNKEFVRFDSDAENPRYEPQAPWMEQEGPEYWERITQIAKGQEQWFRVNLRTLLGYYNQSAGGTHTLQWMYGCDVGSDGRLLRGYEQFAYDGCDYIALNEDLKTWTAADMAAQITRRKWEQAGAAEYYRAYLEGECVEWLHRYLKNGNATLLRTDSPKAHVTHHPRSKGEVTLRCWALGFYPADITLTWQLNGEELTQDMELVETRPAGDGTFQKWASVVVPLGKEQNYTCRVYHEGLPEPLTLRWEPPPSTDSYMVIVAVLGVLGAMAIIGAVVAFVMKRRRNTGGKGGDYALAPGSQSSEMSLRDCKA

murine CMV peptide (pp89, 168-176)
percent of the FCS control (cells in serum-free medium during the 4 h assay): 85% | percent of the surface plus lysate peptide binding accounted for by surface Ld: 80%
